For assay [1], the target named is human GLP1 receptor (on HEK293-CNG-HuGLP1R stable cells) (human) (UniProt P43220). Briefly: cell-based or functional assay.
In assay [2] the target is human GLP1 receptor (on HEK293-CNG-HuGLP1R stable cells) (human, UniProt P43220 24-463). Briefly: cell-based or functional assay.

Molecule “Eli Lilly Trulicity (Lot#02448599) (Fc fusion)” displayed an EC50, cAMP bioassay on HEK293-CNG-HuGLP1R cells in assay [1] of 22 nM.

B1: p9: hGLP1R ECD (1-116)-3xG4S-RGER-Trulicity (lot U2243DL140-14/P9EA001) (Fc fusion)
chain: RPQGATVSLWETVQKWREYRRQCQRSLTEDPPPATDLFCNRTFDEYACWPDGEPGSFVNVSCPWYLPWASSVPQGHVYRFCTAEGLWLQKDNSSLPWRDLSECEESKGGGGSGGGGSGGGGSRGERHGEGTFTSDVSSYLEEQAAKEFIAWLVKGGGGGGGSGGGGSGGGGSAESKYGPPCPPCPAPEAAGGPSVFLFPPKPKDTLMISRTPEVTCVVVDVSQEDPEVQFNWYVDGVEVHNAKTKPREEQFNSTYRVVSVLTVLHQDWLNGKEYKCKVSNKGLPSSIEKTISKAKGQPREPQVYTLPPSQEMTKNQVSLTCLVKGFYPSDIAVEWESNGQPENNYKTTPPVLDSDGSFFLYSRLTVDKSRWQEGNVFSCSVMHEALHNHYTQKSLSLSLG
B1: in assay [2], the “EC50, cAMP bioassay on HEK293-CNG-HuGLP1R cells (after Factor Xa predigestion)” value is 17.6 nM.
